Source: article PMC10268282, “Activator-induced conformational changes regulate division-associated peptidoglycan amidases” (Proceedings of the National Academy of Sciences of the …, 2023)

Biological target: T1, AmiB hydrolytic domain from Citrobacter rodentium (Citrobacter rodentium, UniProt A0A482PQR2 190-422)
T1 construct: AmiB peptidoglycan amidase, Citrobacter rodentium, hydrolytic (enzymatic) domain, cloned without the N-terminal AmiN domain; Construct limits and tags in SI Appendix; also called AmiB enzymatic domain
T1 sequence: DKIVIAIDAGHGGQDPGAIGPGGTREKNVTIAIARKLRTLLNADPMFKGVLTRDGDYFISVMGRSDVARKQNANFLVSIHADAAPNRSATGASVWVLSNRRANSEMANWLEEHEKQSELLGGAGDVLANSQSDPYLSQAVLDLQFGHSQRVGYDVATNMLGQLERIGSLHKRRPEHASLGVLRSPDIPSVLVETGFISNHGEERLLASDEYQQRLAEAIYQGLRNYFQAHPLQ
Assay: crystal structure; X-ray crystallography, 3.4 Å; molecular replacement with Alphafold models
Settings: both partners purified

B1: EnvC LytM domain from Citrobacter rodentium (domain or fragment)
chain: MSRTGGLGSPRGQAYWPVRGPTLHRYGEQLQGELRWKGMVIGASEGTEVKAIADGRVILADWLQGYGLVVVVEHGKGDMSLYGYNQSALVSVGTQVRAGQPIALVGSSGGQGRPSLYFEIRRQGQAVNPQPWLGR
notes: EnvC, Citrobacter rodentium, LytM domain; Construct limits and tags in SI Appendix
Question: Does B1 bind?
Answer: binds
